Test results as given in patent US8445431.

System: T1, [KGHK-Cu]+ copper(II) complex of KGHK
T1 sequence: KGHK

Substance: recombinant isoform of human Angiotensin Converting Enzyme (rhACE) corresponding to the ectodomain somatic ACE
- catalytic rate constant kobs for enzyme deactivation under oxidative conditions (ascorbate, dioxygen): kobs˜2.86×10^-2 min^-1 for enzyme deactivation
